Source: IntAct's records for PubMed 24895401

B1: Ras GTPase-activating-like protein IQG1 (Saccharomyces cerevisiae), Q12280 (parent)
chain: MTAYSGSPSKPGNNNSYLNRYVENLGTNVTPPLRPQSSSKINSSLNIASPSHLKTKTSASNSSATILSKKVESSVSKLKPSLPNKLVGKYTVDLSNYSKIELRYYEFLCRVSEVKIWIEAVIEEALPSEIELCVGDSLRNGVFLAKLTQRINPDLTTVIFPAGDKLQFKHTQNINAFFGLVEHVGVPDSFRFELQDLYNKKNIPQVFETLHILISMINKKWPGKTPALTNVSGQISFTKEEIAACKKAWPRIRDFKSLGTNINTAPASPEEPKEKRSGLIKDFNKFERPNIPVEEILITPRKNITDANCSDFSNTPSPYNEAPKMSNLDVVVEKRKFTPIEPSLLGPTPSLEYSPIKNKSLSYYSPTISKYLTYDTEFYTRRSRAREEDLNYYQTFKYSPSHYSPMRRERMTEEQFLEKVVQLQNICRGVNTRFNLYIQKRLLNLFEQDILRFQACLRGNKFRVLSSMYLPIRRAKIDVPHVEAIQSRIKGSRIRYKYDKLKFTLSRFSCTVELLQAYCRSKLLKTTVNTKLNDIEISHYPLTKLQSYMRASYVRKKVMSLNTKLNDERESIMKFSAIIRGNVVRCSEDAILSAVHDVHKENISKLQSLIRGIFTRSCLASIIYSLGKENCNIIQLSACIRGNAVRHKVQSLFAPENNLSETVHDLQGLVRGILVRYTLDLVDDIVEYNNLALFQAFSRGALVRESLDQKSSFYKRNVRSVIMIQSWIRKSLQRSAYLELLDCPNPSLWAVKKFVHLLNGTATIEEVQNQLESCQASLDSENMKKERLLKSIRQQLNINGVLDKFGLLKDKDHELGISDSTIPKSKYQKYEKLFYMLQVDPSYWKLLYLKEPEFVAKNVYMTFGTVNQRMNDRERSYFTRFVCEMLQNAINEAPSIESFLDNRSQFWQTILQDFLRRESPEFFSIIVPVLDYLSDPVVDFESDPYKIYQEIHGFSSPQHCSPVDDASTKNKFIDNLRCLWHAIEMVAEIYTRKVHTIPVEIRYLCTKIFCYAADKNIEEIDSLRAISSILVNVFVSEYLVNREYYGYKDSNVQKNNQKIDILMKSLATVFEIKNFDGFLDPLNQYANEIKPHIKDVLYNVLVDPEYEQEGDRLIYLDMVSPSPKLELLTEKVLEISGKFEEYLNEFPEADILHDILEKNLDNSSFPRSGRVTLELDASAYRFLVSDDKMRKIYDQVKRAFVYMMQIEDVDTNLYDLSISTILPQDEPNFANFLEQNPKIRDDPMIQKLKPLKYFTLKNVTLKKIHELESTGTFCSSDNKLQNFLNDIANTIKNPNYAIDYVTQEIYITKETLTKISEMNHSLDIELSRLKKHVDHTIKDFQKAKDFSPVHKSKFGNFKNAVKKVQGRERSELQGMKFKWNTKQLYERGVLKTIRGEKLAELTVKVFGSSGPKFPDIIFKISTSDGSRFGIQMIDKRKGPDKRYSDDVDSFSFKDLIKTQVEPKIETWKLFHSNVVVNNSQLLHLIVSFFYKRNAL
partner: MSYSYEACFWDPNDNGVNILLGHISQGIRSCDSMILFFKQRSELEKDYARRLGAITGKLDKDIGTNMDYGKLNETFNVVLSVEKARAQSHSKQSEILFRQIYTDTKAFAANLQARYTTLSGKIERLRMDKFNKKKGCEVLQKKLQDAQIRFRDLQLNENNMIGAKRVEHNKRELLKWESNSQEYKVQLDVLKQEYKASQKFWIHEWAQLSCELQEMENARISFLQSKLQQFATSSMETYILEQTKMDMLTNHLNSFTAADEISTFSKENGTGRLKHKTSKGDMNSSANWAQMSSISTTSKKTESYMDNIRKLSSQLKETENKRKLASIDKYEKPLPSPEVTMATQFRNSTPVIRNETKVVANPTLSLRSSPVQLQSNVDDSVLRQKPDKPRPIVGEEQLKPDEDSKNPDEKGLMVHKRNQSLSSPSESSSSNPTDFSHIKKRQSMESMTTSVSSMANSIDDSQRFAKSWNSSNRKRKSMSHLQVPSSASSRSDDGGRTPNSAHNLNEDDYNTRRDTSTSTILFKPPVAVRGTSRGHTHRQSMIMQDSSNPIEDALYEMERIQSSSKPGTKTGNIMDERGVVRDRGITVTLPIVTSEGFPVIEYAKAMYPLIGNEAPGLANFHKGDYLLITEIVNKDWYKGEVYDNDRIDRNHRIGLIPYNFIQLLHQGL

Variants of: B1
Conditions: with cyk2_yeast HOF1, Q05080

Variant | effect of a mutation on the interaction
Q667S | disrupting interaction strength
Q695S | disrupting interaction strength
Q725S | with no effect
Q667S;Q695S | disrupting interaction strength
